Source: the nanobody polyreactivity screen of Harvey et al. (2022)

Experiment: yeast display, Sf9 membrane polyspecificity reagent, FACS + sequencing; frameworks hold sequencing errors
In short: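 Genes from sorted yeast were amplified by colony PCR, read by MiSeq 2 × 250 sequencing and filtered on CDR length. These cells carried a synthetic nanobody library in Saccharomyces cerevisiae BJ5465 and were sorted by FACS into low and high (top ~1%) gates on anti-HA and streptavidin fluorescence. Polyreactivity is labelled according to the gate of origin.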

Row | Sequence | polyreactivity (PSR sort gate)
1 | QVQLVESGGGLVQAGVSLRLSCAASGLTLRPYTMGWYRQAPGKERELVAAITGRGGRTHYADSVKGRFTISRDNAKNTVYLQMNSLKPEDTAVYYCAAAARVYVKVGYNYWGQGTQVTVSS | high polyreactivity
2 | QVQLVESGGGLVQAGVSLRLSCAASGNIFRYYVMGWYRQAPGKEREFVAAITSSGGSTYYADSVKGRFTISRDNAKKSFYLQMNSLKPEDSAVYYCAKDYWDPGWAEYDYWGQGTQVTVSS | low polyreactivity
3 | QVQLVESGGGLVQAGVSLRLSCAASGRIFDRNAMGWYRQAPGKERELVARISRTGGSTYYADSVKGRFTISRDNAKNTVYLQMNSLKPEDTAVYYSAASRGGGYDYWGQGTQVTVSS | high polyreactivity
4 | QVQLVESGGGLVQAGVSLRLSCAASGRIFLWYAMGWYRQAPGKERELVAVIRGRGDSTSYADSVKGRFTISRDNAKNTVYLQMNSLKPEDTAVYYCADVGRYDYNDWGQGTQVTVSS | low polyreactivity
5 | QVQLVESGGGLVQAGVSLRLSCAASGRIFRFYAMGWYRQAPGIDRELVATISRSGGSTYYADSVKGRFTISRDNAKNNAYLQMNSLKPEDTAVYYCAAQRLHDGDYWVQGTQVTVSS | high polyreactivity
6 | QVQLVESGGGLVQAGVSLRLSCAASGRIFYHNAMGWYRQAPGKEREFVAAISSRGGTTYYADSVKGRFTISRDNAKKTVYLQMNILKPEDTAVYYCAKQYYSASPAKGDYWGQGTQVTVSS | high polyreactivity
7 | QVQLVESGGGLVQAGVSLRLSCAASGRTFFPNAMGWYRQAPGKERELVAAITHSGGTTYYADSVKGRFTISRDNAKNTVYLQMNSLKPEDTAVYYCARGQPRYYNSAYGYWGLGTQVTVSS | high polyreactivity
8 | QVQLVESGGGLVQAGVSLRLSCAASGRTFPRYAMGWYRQAPGKERELVASISYSGGSTYYADSVKVRFTISRDTAKNTVYLQLNSLKPEDTAVYYCARRGRTSFKYYYWGQGTQVTVSS | high polyreactivity
9 | QVQLVESGGGLVQAGVSLRLSCAASGRTFVTYAMGWSREAPGKEKEFVAAISRTGGSTDYADSVKGRFTISRDNAKNTVYLQMNSLKPEETAVYYCATTVIVSPSGYLKSYYWGQGTQVTVSS | high polyreactivity
10 | QVQLVESGGGLVQAGVSLRLSCAASGSIFGGYAMGWYRQAPGKERELVAVISTRGGRTYYADSVKGRFTISRDNAKYTVYLQMNSLKPEDTAVYYCAANRQYTEYNYWGQGTQVTVSS | high polyreactivity
11 | QVQLVESGGGLVQAGVSLRLSCAASGSIFQSYDMGWYRQEPGKEREVVAAISWSGSTTYYADSVKGRFTLSRDNAKNTVYLQMNSLKPEDTAVYYCAVDSNPPDWWAVIYGFWGQGTQVTVSS | low polyreactivity
12 | QVQLVESGGGLVQAGVSLRLSCAASGSIFTQYAMGWSRQAPGKERELVAAISWSGARTYYADSVKGRFTISRDNAKNTVYIQMNSLKPEDTAVYYWAADIIRPVTVDYWGQGTQVTVSS | high polyreactivity
13 | QVQLVESGGGLVQAGVSLRLSCAASGSILRQYAMGWYRQAPGKEWELVAAITGSGGSTSYADSVKGRFTISRDNAKNTVYLQMNSLKPEDTAVYYCNAYLSSRTRSTYGSLRMDYWGPGTQVTVSS | high polyreactivity
14 | QVQLVESGGGLVQAGVSLRLSCAASGSTFARYAMGWYRQAPGKERELVAVITQSGSSTYYADSVKGRFTISRDNAKNTVYLQMNSLKPEDTAVYYCAAVGIDYTRYGRYWYSYDYWGQGTQVTVSS | high polyreactivity
15 | QVQLVESGGGLVQAGVSLRLSCAASGSTFDTYAMGWYRQAPGKERELVAAISGSGVRTYYADSVKGRFTISRDNAKYTVYLQMNSLKPEDTAVYYCATTGYARRFDYWGQGSQVTVSS | high polyreactivity
16 | QVQLVESGGGLVQAGVSLRLSCAASGSTFGENDMGWYRQAPGKERELVAAITWSGGSTYYADSVKGRFTISRDNAKNTVYLQMNSLNPEVTAVYYCNAEGVGRYSPVSHTFDYWGQGTQVTVSS | low polyreactivity
17 | QVQLVESGGGLVQAGVSLRLSCAASGSTFTYNAMGWYRQAPGKERELVAAISYGGGRTYYADSVKGRFTISRDNAKNTVYLLMNSLKPEDTAVYYCNRYRYSYVEFDYWGQGTQVTVSS | high polyreactivity
18 | QVQLVESGGGLVQAGVSLRLSCAASGTFFIYAMGWYRQAPGKERELVAAITSGDITYYADSVKGRFTISRDNAKNTVYFEMNRLKPEDTAVYYCAAESYAWWDKQFLYRYDYWGQGTQVTVSS | low polyreactivity
19 | QVQLVESGGGLVQAGVSLRLSCADSGFTFDGYAMGWYRQAPGKERELVAAISDSGDSTYYADSVKGRFTISRDNAKNTVYLHMNSLKPEDTAVYYCAAGLGYYWSDYFAYDYWGQGTQVTVSS | low polyreactivity
20 | QVQLVESGGGLVQAGVSLRLTCAASGRIFRRYAMGWYRQAPGKEMEFVAAISYGGGSTYYADSVKGRFTISRDNAKNTVYLQMNSLKPEDTAVYYWNADEVVWGYNYWGQGTQVNVSS | low polyreactivity
21 | QVQLVESGGGLVQAGVSLSLSCAASGITFIIYVMGWYRQAPGKERELVAAISSTGSTYYADSVKGRFTISRDNAKNTVYLQMNSLKPEDTAVYYCAARGRRSSNGFYYWGQGTQVTVSS | high polyreactivity

Row | Sequence | polyreactivity (PSR sort gate)
22 | QVQLVESGGGLVQAGYSLRLSFAASGITFRYYAMGWYRQATGKERELVAGITWSGPSTYYADSVKGRFTISRDNAKNTVYLQMNILKPEYTAVFYCAVDYGLYFTFDYWGQGTQVTVSS | low polyreactivity
23 | QVQLVESGGGLVQALGSLRLSCAASGFIFGYNAMGWYRQAPGQERELVAAISSSGGSTYYADSVKGRFTISRDNAKNTVYLQMNSLKPEDTAVYYGAARPVALRKYDYWGLGTQVTVSS | low polyreactivity
24 | QVQLVESGGGLVQARGSHRISCAASGRTITFNAMGWYRQAPGKQRELVAGIDLSTTSTYYADSVKGRFTISRDNAKNTVYLQMNSLKPEDCAVYYCNAYRNADYDYWGQGTLVTVSS | low polyreactivity
25 | QVQLVESGGGLVQARGSLRLSCAASGAIFVVYTMGWYRQAPGKERELVAAITQNGGSSTYYADSVKGSFTISRDNAKNTFYLQMNSLKPDDTAVYYCNVDSFTTTFDYWGQGTQVTVSS | low polyreactivity
26 | QVQLVESGGGLVQARGSLRLSCAASGFIVSPNVMGWYRQAPGKERELVAVISSTGSTYYADSVKGRFTISRDNAKNTVYLQMNSLKPEDTAVYHCNADYSWYGSSGRPGYDYWGQGTQVTVSS | low polyreactivity
27 | QVQLVESGGGLVQARGSLRLSCAASGFTFQNNAMGWYRQAPGKERELVAAISRSGGSTYYADSVKGRFTISRDNANITVYLQMNSLKPEDTAVYYCAKSSGTLWITKYDYWGQGTQVTVSS | low polyreactivity
28 | QVQLVESGGGLVQARGSLRLSCAASGFTFYFYAMGWYRQATGKETELVAAISRSGSRTYYADSVKGRFTISRDNAKNTVYLQMNSLKPVDTAVYYCARVRPRGLYFVLHYDYWGQGTQVTVSS | high polyreactivity
29 | QVQLVESGGGLVQARGSLRLSCAASGLTFASYAMGWYRQEPGKERELVARISRSGGSTYYADSVKGRFTISRDNAKNTVYFHMNSLKPEDTAVYYCAADYIFRRYPGGGIYDYDYWGQGTQVTVSS | high polyreactivity
30 | QVQLVESGGGLVQARGSLRLSCAASGRIFDRYDMGCYRQAPGKEREFVASITWSDGSTYYADSVKGRFTISRDYAKNTVYLQMNSLKPEDTAVYYCNADYVYYYIPVVYEYDYWGQGTQVTVSS | high polyreactivity
31 | QVQLVESGGGLVQARGSLRLSCAASGRIFNYYAMGWYRQAPGKERELVAAISGSGGRTYYADSVKGRFTISRDNAKNTVYLQMNSLKPEDTAVYYCAADGVDGYDYWGLGTQVTVSS | high polyreactivity
32 | QVQLVESGGGLVQARGSLRLSCAASGRTLYDYAMGWYRPAPGKERELVAAISSSGATTYYADSVKGRFTISRDHAKNTVYLQMNSLKPEDTAVYYCAAESVHQAWSGYYYWGQGTQVTVSS | high polyreactivity
33 | QVQLVESGGGLVQARGSLRLSCAASGSIFDFYAMGWYRQAPGKERELVAAISGSGGSTYYADSVKARFTISRDNAKNNGYLQMISLKPDDTAVYYCSYYYWGQGTQVTVSS | low polyreactivity
34 | QVQLVESGGGLVQARGSLRLSCAASGSIFFPYAMGWYRQAPGKERELVAAIRYSAGSTYYADSVKGRFTISRDNAKNTVYLQMNSLKPEDTAVYYCNAGSSCWVSRIGYDYWGEGTQVTVSS | high polyreactivity
35 | QVQLVESGGGLVQARGSLRLSCAASGSIFIRNAMGWYRQAPGKERELVAAISTIGGRTYYADSVKGRFTISRDNAKNTVYLQMNSLKPEDTAVYYCAAEQGTPSTNWYDYWGQGTQVTVSS | low polyreactivity
36 | QVQLVESGGGLVQARGSLRLSCAASGSIIGGNAMGWYRQAPGKERELVATISWSGGSTYYADSVKGRFTISRDKAKNTVYLQMNSLKPEDTAVYYCAKTPYRRYRYGGYTYRTYEYWGQGTQVTVSS | low polyreactivity
37 | QVQLVESGGGLVQARGSLRLSCAASGSTFGLYAMGWYRQAPGKERELVAAISYSGSSTYYADSVKGRFTISRDNAKNTVYLQMNSLKPEDTAVYYCAARRSEHGYNYWGQGTQVTVSS | high polyreactivity
38 | QVQLVESGGGLVQARGSLRLSCAASGSTFRINAMGWYRQAPGKERELVAAITSGGSTKYADSVKGRFTISRDNAKNTVYLQMYILKPADTAVYYCNKQGYPFRYFAWYPGYNYWGQGTQVTVSS | low polyreactivity
39 | QVQLVESGGGLVQARGSLRLSCAASGSTFYAYVMGWYRQATGKERELVAAISKGGGSTYYADSVKGRFTISRDNAKNTVYLQMNSLKPEDTAVYYSAAYASYSNYRKYNYWGQGTQVTVSS | high polyreactivity
40 | QVQLVESGGGLVQARGSLRLSCAASGSTFYYYAMALSRQAPVKERELFASISDHGSTNYADSVKGRFTISRDNAKNTVFLQMNSMKPEDTAVYYCGAVWCLQFGSAWYQMGYWGQVTQVTVSS | low polyreactivity
41 | QVQLVESGGGLVQARGSLRLSCAASGSTLTRNTMGGYRQAPGKERELVAGITRSGSSTYYADSVKGRFTISRDNAKNTVYLQMNSLKPEDTAVYYCAAPYRYRQNLGYWGQGTQVTVSS | high polyreactivity
